Experimental data as given in US20150086555A1 (THERACLONE SCIENCES, published 2015).

Tests used:
[1] = target: recombinant soluble homotrimeric HA, A/common magpie/Hong Kong/5052/07 H5N1 (Influenza A virus A/common magpie/Hong …); assay: microarray, transfection SN IgG, trimeric HA
[2] = target: recombinant homotrimeric HA A/common magpie/Hong Kong/5052/07 H5N1 (Influenza A virus A/common magpie/Hong …); assay: protein microarray, purified IgG, trimeric HA
[3] = target: recombinant soluble homotrimeric HA of A/common magpie/Hong Kong/5052/07 (H5N1) (Influenza A virus A/common magpie/Hong …); assay: trimeric HA microarray, transfection supernatant set 3
[4] = target: recombinant soluble homotrimeric HA of A/common magpie/Hong Kong/5052/07 (H5N1) (Influenza A virus A/common magpie/Hong …); assay: HA microarray, BCC supernatant

B1: TCN-560 (5084_P10) (antibody, V domains shown)
VH: EVQLVESGGGLVQPGGSLRLSCAASGFIFRNYWMSWVRQAPGKGLEWVANIKQDGREKYYVDSLRGRVNISRDNAENSLYLHMNSLRVEDTAVYFCARARMVVVTGDGFDVWGHGTMVTVSS
VL: DIQMTQSPSSLSASVGDRVTITCRASQNIKRYFNWYQQKPGKAPKLLIYAASNLENGVPSRFSGSGSGTDFTLTISSLQPEDFATYYCQQSFSKSWTFGQGTNVDIK
Trimeric HA Binding: RLU [1]: 30500 RLU

B2: TCN-556 (5089_K12) (antibody, V domains shown)
VH: QVQLVQSGAEVKKPGASVKVSCKASGYTFIGYDMHWVRQAPGQGLEWMGWINAKRGGTNYAQKFQGRVTMTRDTSISTAYMELNSLRSDDTAVYYCARGVGSRTTIFGVLNPEFDYWGQGTLVTVSS
VL: QSALTQPPSASGSPGQSVTISCTGSSSDVGGYDYVSWYQQHPGKAPKLLIYEVTKRPSGVPDRFSGSKSGNTASLTVSGLQAEDEADYYCSSYAGNYNHVFGPGTKVTVL
Trimeric HA Binding: RLU [1]: 20100 RLU

B3: TCN-556 (5089_K12) (antibody, V domains shown)
VH: QVQLVQSGAEVKKPGASVKVSCKASGYTFIGYDMHWVRQAPGQGLEWMGWINAKRGGTNYAQKFQGRVTMTRDTSISTAYMELNSLRSDDTAVYYCARGVGSRTTIFGVLNPEFDYWGQGTLVTVSS
VL: QSALTQPPSASGSPGQSVTISCTGSSSDVGGYDYVSWYQQHPGKAPKLLIYEVTKRPSGVPDRFSGSKSGNTASLTVSGLQAEDEADYYCSSYAGNYNHVFGPGTKVTVL
Trimeric HA Binding: RLU [2]: 25600 RLU

B4: TCN-533 (5256_A17a) (antibody, V domains shown)
VH: QVQLVQSGADVKKPGSSVTVSCKASGGSFSNYGINWVRQAPGQGLEWMGGIIPLINAPNYAPKFQGRVTITADMFSNIVSLQLTSLRTDDTAVYYCARRKMTTAIDYWGQGTLVTVSS
VL: QPVLTQPPSASASLGASVTLTCTLSSAYSNYKVDWYQQRPGKGPRFVMRVGTGGIVGSKGDGIPDRFSVLGSGLNRYLTIKNIQEEDESDYHCGADHGSGSNFVSPYVFGGGTKLTVL
Trimeric HA Binding: RLU [3]: 25200 RLU

B5: TCN-533 (5256_A17a) (antibody, V domains shown)
VH: QVQLVQSGADVKKPGSSVTVSCKASGGSFSNYGINWVRQAPGQGLEWMGGIIPLINAPNYAPKFQGRVTITADMFSNIVSLQLTSLRTDDTAVYYCARRKMTTAIDYWGQGTLVTVSS
VL: QPVLTQPPSASASLGASVTLTCTLSSAYSNYKVDWYQQRPGKGPRFVMRVGTGGIVGSKGDGIPDRFSVLGSGLNRYLTIKNIQEEDESDYHCGADHGSGSNFVSPYVFGGGTKLTVL
Trimeric HA Binding: RLU [4]: 44500 RLU

B6: TCN-533 (5256_A17a) (antibody, V domains shown)
VH: QVQLVQSGADVKKPGSSVTVSCKASGGSFSNYGINWVRQAPGQGLEWMGGIIPLINAPNYAPKFQGRVTITADMFSNIVSLQLTSLRTDDTAVYYCARRKMTTAIDYWGQGTLVTVSS
VL: QPVLTQPPSASASLGASVTLTCTLSSAYSNYKVDWYQQRPGKGPRFVMRVGTGGIVGSKGDGIPDRFSVLGSGLNRYLTIKNIQEEDESDYHCGADHGSGSNFVSPYVFGGGTKLTVL
Trimeric HA Binding: RLU [2]: 19000 RLU
